From US6866997, “Nucleic acid binding proteins” (Gendaq Limited)

Target: Zif268 DNA-binding domain (UniProt P08046 P08046:333-421)
Assay: apparent; text states optimised peptide Kd equals that of wild-type Zif268; curve only in FIG. 7

B1: Zif268 consensus site (dsDNA)
DNA 1: GCGTGGGCG
DNA 2: CGCCCACGC
Kd: 3 nM
